{"source": "paper PMC6854486", "test_system": "RcGTA gp1 (small terminase TerS), MBP fusion (Rhodobacter capsulatus SB1003)", "experiment": "EMSA", "conditions": "25 mM HEPES pH 8.0, 50 mM K-glutamate, 1 mM DTT, 0.05% Triton X-100, 4% glycerol, 1 ug poly(dI-dC), 100 ng DNA in 10 ul, room temperature 30 min; 0.8% agarose …"}
{"substance": "rcc01397 flanking amplicon", "values": [{"measurement": "binding signal (% bound at 40 uM protein)", "value": 87}]}
{"substance": "rcc01398 flanking amplicon (1.4 kbp)", "values": [{"measurement": "binding signal (% bound at 40 uM protein)", "value": 87}]}
